In publication PMC1405823:

System: BsSSB (6xHis-tagged, as purified) (Bacillus subtilis)
Test: EMSA
Details: 100 mM Tris-HCl pH 7.5, 10 min at 37 °C, 12.5% native PAGE

50-base random sequence ssDNA
binding signal (% probe shifted): 50
